Assay results from article PMC7618375, “Structure and Methyl-lysine Binding Selectivity of the HUSH Complex Subunit MPP8” (Journal of molecular biology, 2024).

Biological target: Dnmt3a (Homo sapiens) (UniProt Q9Y6K1)
Experiment: not given
Details: cited from earlier work

Row | Substance | Kd [nM]
1 | MPP8 chromodomain (from UniProt Q99549) | 12000

Biological target: MPP8 chromodomain (CD, residues 55-116) (human) (UniProt Q99549)
Experiment: ITC; 750 uM peptide in the syringe titrated into 50 uM MPP8 CD in the cell; 50 mM HEPES pH 7.4, 0.1 M NaCl, 0.5 mM TCEP, 25 °C; single-site model
Details: not given

Row | Substance | Kd [nM]
2 | Histone H3 peptide trimethylated at lysine 27 | > 50000
3 | GLP peptide residues 199-211 with lysine 205 trimethylated (from UniProt Q9H9B1 199-211) | 337
4 | ATF7IP N-terminal tail peptide trimethylated at lysine 16 | 193
5 | G9a peptide trimethylated at K185 | 1310
6 | Histone H3 peptide trimethylated at lysine 9 | 769
7 | SETDB1 peptide trimethylated at K1178 | > 50000
8 | SETDB1 peptide trimethylated at K1170 | 1550
